Laboratory results: a protein production outcome set (Wang et al. 2014)

Test: label from the status in PepcDB records

| Sequence | protein production |
| --- | --- |
| MKAIILAGGHSVRFGKPKAFAEVNGETFYSRVIKTLESTNMFNEIIISTNAQLATQFKYPNVVIDDENHNDKGPLAGIYTIMKQHPEEELFFVVSVDTPMITGKAVSTLYQFLVSHLIENHLDVAAFKEDGRFIPTIAFYSPNALGAITKALHSDNYSFKNIYHELSTDYLDVRDVDAPSYWYKNINYQHDLDALIQKLLEHHHHHH | not failed |
| MFRFNLCVLLFATLATLSAAQEQTPAYVGSAECRDCHTKAAEAWEGSHHAKAWTAPTAENIVADFNDTEFRHDGTLTRFRVEDGRHYITVTEKDGVTTDYPVHSVAGIEPLQQYLLETEPGRIQSFDVVWDTIKQEWFHLYPDQDLPPDDGLHWTGPYKNWNARCAECHATGFEKNYSPVTRSYSSVPVEIGVGCEACHGPGSAHIAWATGKSLEEPLTGLSEYRLTIDYDAGTETVLQQCASCHSRREAHFDGNPVPGIPFNDAYALALLRPGAYHADGQILDEVYVYGSFLQSKMYQQGVSCSNCHEVHSAELKAEGNGVCTQCHSPAGNPSFTTLDSKNYDDPSHHYHEAGTEGAQCKSCHMIERVYMGVDGRRDHSFRIPRPDISLETDSPNACTDCHSDQSSAWAAAAIEEWYPDSENRGLHYGQVLAAGRANAVAARVPLTDLAGDTTQPGIARATALWLLEQSGDATLGAELSSMLTDTDPLVRAAAASAHGLFPPAERAAALEPALDDPRRMVRIAAGKTLLDVPRSALTPSASERLGAALREWQAGLLNRADFPETHIILAGTALTMRNFEGAERAFREVVLMDPQREEAWVMLVRIADAMRGPQAAAQVLDEALQAVPGSDTLNSMRSESLLPPQ | failed |
| MRWKGRRVSSNVEDRRGSGAKVGGISIIGLVVAFVAWKFFGVDPQQAYQATQQITAAQNPSSNAPQQLTADQKEASDFVGTILADTEDTWTPIFKQLGQTYVPPKLVLFNGIVQSGCGTAQSAMGPFYCPTDQKVYIDTSFFKDMREQMGISGEQNQTELSRQDQAGDFAQAYVVAHEVGHHIQNLLGISSQVQQAQAQGSRAQANQLSVRLELQADCFAGIWANHNQQRTQFLEAGDIEEAMDAAQKIGDDYLQKRSTGQVVPDSFTHGTSQQRMHWFEVGLKSGDLNQCDTF | failed |
| LAAESQADYLGFIFAESKRKVSPEDVKKWLNQVRVEKQVAGVFVNESIETMSRIAKSLKLDVIQLHGDEKPADVAALRKLTGCEIWKALHHQDNTTQEIARFKDNVDGFVIDSSVKGSRGGTGVAFSWDCVPEYQQAAIGKRCFIAGGVNPDSITRLLKWQPEGIDLASGIEKNGQKDQNLMRLLEERMNRYVSISE | failed |
| MVNTRNIIRQFTPNWFTTIMGTGVVAIVLGHFSELHTLGAALWLINTCLFCVFCILYMLRWSLFPHEARQIFHHPSMSLFLGAIPMALATLINGLLMYGNTVFGQHLPQLALWLWYIDVVLVISIGWVVPYFMFSRQQHHLHSITAMWLLPIVAAEVAAATGGLLVAEFVHSTQAISILWLSYMLWGMSVLPAFAILSLLILRLALHKLPEKELAISSWLSIGPIGTGALAMMLLGQHAPDVLQSIGMQSFGIFLQQAAKLISLVLLGCGVWWLGIAMFASLHHLKHGIPFNLGWWGLTFPLGVFTLALSQLGQLLGWNAFDHIAVILSVILVGLWSCVAVKTIQGAYRGQLFFSPCLQQLQQQQKACAQSETA | failed |
| MRLLYVIKKENPMDQMPNCPKCQSEYVYHDSINFVCPDCGNEWDNNEIQESDDDQLIVKDSNGNLLAEGDNVLLIKDLKLKGSSEVLKKGTKFKNIRLVNGDHNVDCGKIMLKSEFLKKA | failed |
| MFVWHEYENAAEAAQSLADAVADALQGALDEKGGAVLAVSGGRSPIAFFNALSQKDLDWKNVGITLADERIVPTNHADSNTGLVREYLLKNKAAAAVWIPMVEDGKTETELHPDAVVDYALKHYKQPDVLILGMGNDGHTASIFPKAPQFQTAIDGSAGVALVHTTPVTAPHERISMTLDAIAHTGHVFLAIQGEEKKAVFDQAAQGENREYPISLVLNHQGVNCHVFYAE | not failed |
| MFAERRMNVQKKLKIMAARDRNRFRPLFEGDEEVDMLYLNCNVASRPSLSCDGLVCIPIPGWINVLNPSTGEFLRFSSGRDPRLINDFECVDSKFDVFPGFWTMGFGRDNVNGSYKIVRMLFDRHFENRYCQILDVNIGEWRKQRQPPYFVGYREKSACVNGSIYWSQALIRCKLLAFDLYSEEFRDVPTPPRSEICERSCQIVNLEDRLVLAVTYTTSLHWNVKIWSMDAHDGTRSITYSIRLFSKDMNSSIMNHFQLWFWTRPLAVSKRGNLFFHDNEKRL | failed |
| MIRQRSVIAKRAYIDEGVYIGNVVRIGEESMIHRRSRIGSGARIGGSVCIGVYCRIDGSVRIGQHADIGEWVNIDGHARIGNFARIGEWSRIGGRANIAAHVVLEKQSIIHSETCIQDASKLEHHHHHH | failed |
| MKRFNVLKYIRTTKANIQTIAMPLTTKPLSLKINAALFDVDGTIIISQPAIAAFWRDFGKDKPYFDAEHVIHISHGWRTYDAIAKFAPDFADEEYVNKLEGEIPEKYGEHSIEVPGAVKLCNALNALPKEKWAVATSGTRDMAKKWFDILKIKRPEYFITANDVKQGKPHPEPYLKGRNGLGFPINEQDPSKSKVVVFEDAPAGIAAGKAAGCKIVGIATTFDLDFLKEKGCDIIVKNHESIRVGEYNAETDEVELIFDDYLYAKDDLLKW | not failed |
| MFNIKENQTTVKKEILAGITTFFTMVYIVVVNPSILSGTGVPFDQVFTATIIAAVVGTLWMALAANFPIAIAPGMGLNVYFAVSVVGSSNGEISYQTAFSTVFAAGILFIILSLTPLRKQLIEAIPANLKYGITAGIGLFIAFVGLRGAGIITANEANLVGLGNLHSPGVILALIGLAFSVVLMVMNVSGALFFGMILTGLIAFFTGQLEFTKGIMSMPHLPEKLIVTNPFAAFGDVIHYGLYSVVFSFLLVTIFDTTGTMIGVAEQAGLMKNNKLPNARKALLADSTATTVGAMFGTSPTTAYIESSAGVAAGGRTGLTSLTVAVLFGAALFFSPLVSAVSGIAAITSPALIIVGSMMIGAVTNIRWKELDEAFPAFLVILTMPLTSSIATGISLGFIAYPIVKAAKGKWREIHPLVFVFAVLFFIHLFFLEGH | failed |
| MGSSHHHHHHSSGLVPRGSHMLEGIIEEKALFVTCGATVPFPKLVSCVLSDEFCQELIQYGFVRLIIQFGRNYSSEFEHLVQERGGQRESQKIPIDQFGCGDTARQYVLMNGKLKVIGFDFSTKMQSIIRDYSDLVISHAGTGSILDSLRLNKPLIVCVNDSLMDNHQQQIADKFVELGYVWSCAPTETGLIAGLRASQTEKLKPFPVSHNPSFERLLVETIYS | not failed |
| MSKDSESNLAQRQSQPKAHADLRINSHWIIPIENTTDHNLVSNILIDHCLLIKDGIILAIEPQSSCQIPATETLDLGQQVLMPGWVNAHGHAAMSLFRGLADDLPLMTWLQEHVWPAEAQHVDEHFVKQGTELAIAEMIQSGTTTFADMYFYPQQSGEAALAAGIRAVCFAPVLDFPTNYAQNADEYIRKAIECNDRFNNHPMNEQGLVQIGFGPHAPYTVSDEPLKEITMLSDQLDMPVQIHLHETDFEVSESLETFNKRPTQRLADIGFLNERVSCVHMTQVDDGDIKILQKTGASIIHCPESNLKLASGFCPIAKLSAANIPLAIGTDGAASNNDLDMFSETKTAALLAKGVSQDASAIPAIEALTMATLGGARALGIDDITGSLKPGKAADIQAIDLNTLSSQPVFDPVSHMVYCTKSTQVSHVWVNGRCLLKNGELTTLNEETLINHAKAWASAIRTPIK | not failed |
| MNTLEIAKEVFEKEAQAILDLATNLDENFNQAVNLMLNTKGRCIVSGMGKSGHIGAKIAATLASTGTPSFFIHPGEALHGDLGMLTSEDVLIAISNSGETEEILKIIPAIKKREIPLIVMCGKKNSTLVKQGDIFLNIAVEKEACPLQLAPMSSTTATLVMGDALAAALMKVRNFKPDDFALFHPGGSLGRKLLTKVKDLMVSSNLPIVHPDTEFNDLVDVMTSGKLGLCVVLENEKLVGIITDGDLRRALKASDKPRFDFKAKEIMSINPKVVDADAMASEAEGIMLKHKIKEIIVGKEEKVVGIIQLYAIGNV | not failed |
| MSFDRNLCKVLVADDSRLVTSSVTAILRQLDLSDIYYAYKPFEVINLCKQMHFDLVICDYNFQTQLNGFQLLEELKHAQILPAHTTFVFLTGENDHKIVRSIVDCDPDDYLLKPFNHTFFRNRLLSAMKRRSVLLPIYEKLREMDFEGVIEATDTLLPFHPEYSKLIRRYRAHAMVQNKQFSSARSEYEKLLKEDNFDWIKTALANTLIETDNLEKAQEVLESLSSKKENPYYHDEMSNMAVLSEDIPKAIKHLKQSTMLLDAGSERELVITNLSLASESYDDAVTYIKRYYEKNENTFRGGIFTKLNFVRCHLYRSLNAPSNQCFENLLFGLNPLIGEIEKNSQFKAQFALIDAHIALIRGDLKAAISQVRAVLASNQLSHFYDLYHLCVLLERCSFLSEMKSMLPRARRAIAEAQHPSIFRSQVHMLKSLEMRLQESQTKIEQIRRQITAQKSISTSAITPHFDRYFQLHDLLPHSKKICLAIVRLASLRPFEYRGEYAIYRKLEHCDRVIRNLCDNRELQSIKYNNMYQYAKQNITVSNG | failed |
| MSSATASIKLSNGVEMPVIGLGTWQSSPAEVITAVKTAVKAGYRLIDTASVYQNEEAIGTAIKELLEEGVVKREELFITTKAWTHELAPGKLEGGLRESLKKLQLEYVDLYLAHMPAAFNDDMSEHIASPVEDVWRQFDAVYKAGLAKAVGVSNWNNDQISRALALGLTPVHNSQVELHLYFPQHDHVDFCKKHNISVTSYATLGSPGRVNFTLPTGQKLDWAPAPSDLQDQNVLALAEKTHKTPAQVLLRYALDRGCAILPKSIQENRIKENFEVFDFSLTEEDIAKLEESKNSQRLFLQDFMTGHPEDAFAAERK | not failed |
| MLIIAILCLGLLVAQGVASLILLSRLVKGARRRSPLAPVFLPEEGVRNVSVVVPTLNEAARVTPCLLGLAQQGPPLREILVVDSRSTDGTQAVVQARQKDNPRLQLLTDDPLPDNWVGRPWALNYGFRHSDPASEWILGIDADTQPQPGLVASVVQAAEEENYDILSLSPQFILQSPGEWWLQPALLMTLLYRFESAGVREQAPETVMANGQCFLCRRLVLEALGGYELAARSFCDDVTLARVAAQRGYRVGFLDGANLIRVRMYEGIGETWREWGRSLDLKDATVPARLWAEVIFLLLVQGLPILFFSLLLMLWGEDFDFLTLRLAIALNGFLLLVRWGMLLAIYPSYYRPSEKGAWSYWLSPLADPLAVTRIIISASQTPKQWRGRIYPGAS | failed |
| MSSAKSARYNRFSGGPANLPASDSSGTRMETTFGPTFSTVTTITKAADGTSTYKQHRRTPSSSSTLAYSPRDEEDGMPPINTPRRSDSAISVRSLHSESSMSLRSTFSLPEEEEEPEPLVFAEQPSVKLCCQLCCSVFKDPVITTCGHTFCRRCALKSEKCPVDNAKLTVVVNNIAVAEQIGELFIHCRHGCRAAGTGKPGVFEVDPRGCPFTIKLSARKDHESSCDYRPVRCPNNPSCPPLLKMNLEAHLKECEHIKCPHSKYGCTFIGNQDTYETHLETCRFEGLKEFLQQTDDRFHEMHVALAQKDQEIAFLRSMLGKLSEKIDQLEKSLELKFDVLDENQSKLSEDLMEFRRDASMLNDELSHINARLNMGILGSYDPQQIFKCKGTFVGHQGPVWCLCVYSMGDLLFSGSSDKTIKVWDTCTTYKCQKTLEGHDGIVLALCIQGCKLYSGSADCTIIVWDIQNLQKVNTIRAHDNPVCTLVSSHNMLFSGSLKAIKVWDIVGTELKLKKELTGLNHWVRALVAAQSYLYSGSYQTIKIWDIRTLDCIHVLQTSGGSVYSIAVTNHHIVCGTYENLIHVWDIESKEQVRTLTGHVGTVYALAVISTPDQTKVFSASYDRSLRVWSMDNMICTQTLLRHQGSVTALAVSRGRLFSGAVDSTVKVWTC | failed |
